Data as given in the Immune Epitope Database (IEDB).

Assays:
HLA-A*03:01 [1] = test: IEDB peptide-MHC binding, purified MHC/direct/fluorescence; filed as Kd, often an IC50 or EC50 that approximates it; ≥ and ≤ were set here for values at or beyond the usual limits of such assays; conditions: source organism: Araucaria virus
HLA-A*23:01 = test: as above; conditions: source organism: Araucaria virus
HLA-A*02:16 = test: as above; conditions: source organism: Araucaria virus
HLA-A*02:12 = test: as above; conditions: source organism: Araucaria virus
HLA-B*15:01 [2] = test: as above; conditions: source organism: Orthohantavirus andesense
HLA-A*68:02 [3] = test: as above; conditions: source organism: Araucaria virus
HLA-A*02:11 [4] = test: as above; conditions: source organism: Araucaria virus
HLA-A*29:02 [5] = test: as above; conditions: source organism: Araucaria virus
HLA-A*24:03 = test: as above; conditions: source organism: Araucaria virus
HLA-A*02:19 [6] = test: as above; conditions: source organism: Araucaria virus
HLA-A*02:01 [7] = test: IEDB peptide-MHC binding, purified MHC/competitive/fluorescence; filed as Kd, often an IC50 or EC50 that approximates it; ≥ and ≤ were set here for values at or beyond the usual limits of such assays
HLA-B*57:01 = test: as above
HLA-B*15:17 = test: as above; conditions: source organism: Araucaria virus
HLA-A*26:01 [8] = test: as above
HLA-B*18:01 = test: as above
HLA-A*69:01 = test: as above; conditions: source organism: Araucaria virus
HLA-B*46:01 = test: as above
HLA-B*39:01 = test: as above; conditions: source organism: Araucaria virus
HLA-B*27:03 = test: as above
HLA-B*51:01 = test: as above
HLA-A*29:02 [9] = test: as above
HLA-A*01:01 [10] = test: as above
HLA-A*02:06 = test: IEDB peptide-MHC binding, purified MHC/competitive/radioactivity; filed as Kd, often an IC50 or EC50 that approximates it; ≥ and ≤ were set here for values at or beyond the usual limits of such assays
HLA-A*02:01 [11] = test: as above
HLA-A*02:03 = test: as above
HLA-A*02:17 = test: as above
HLA-A*03:01 [12] = test: IEDB peptide-MHC binding, purified MHC/competitive/fluorescence; filed as Kd, often an IC50 or EC50 that approximates it; ≥ and ≤ were set here for values at or beyond the usual limits of such assays
HLA-B*15:01 [13] = test: as above
HLA-A*02:19 [14] = test: as above
HLA-A*02:11 [15] = test: as above; conditions: source organism: Encephalitozoon cuniculi GB-M1
HLA-A*68:02 [16] = test: IEDB peptide-MHC binding, purified MHC/competitive/radioactivity; filed as Kd, often an IC50 or EC50 that approximates it; ≥ and ≤ were set here for values at or beyond the usual limits of such assays; conditions: source organism: Dengue virus 3 Martinique/1243/1999
HLA-A*11:01 = test: IEDB peptide-MHC binding, purified MHC/direct/fluorescence; filed as Kd, often an IC50 or EC50 that approximates it; ≥ and ≤ were set here for values at or beyond the usual limits of such assays; conditions: source organism: dengue virus type 2
HLA-B*45:06 = test: IEDB peptide-MHC binding, purified MHC/competitive/fluorescence; filed as Kd, often an IC50 or EC50 that approximates it; ≥ and ≤ were set here for values at or beyond the usual limits of such assays; conditions: source organism: Dengue virus 3 Philippines/H87/1956
HLA-B*83:01 = test: as above; conditions: source organism: Dengue virus 3 Philippines/H87/1956
HLA-A*31:01 = test: as above; conditions: source organism: Dengue virus 3 Philippines/H87/1956
HLA-B*15:42 = test: as above; conditions: source organism: Dengue virus 3 Philippines/H87/1956
HLA-A*68:01 = test: IEDB peptide-MHC binding, purified MHC/competitive/radioactivity; filed as Kd, often an IC50 or EC50 that approximates it; ≥ and ≤ were set here for values at or beyond the usual limits of such assays; conditions: source organism: Dengue virus 3 Martinique/1243/1999
HLA-A*01:01 [17] = test: as above; conditions: source organism: Dengue virus 4 Philippines/H241/1956
HLA-A*30:01 = test: as above; conditions: source organism: Dengue virus 1 Brazil/97-11/1997
HLA-A*26:01 [18] = test: as above; conditions: source organism: Dengue virus 4 Philippines/H241/1956
[19] = source organism: Araucaria virus
[20] = source organism: Dengue virus 4 Philippines/H241/1956
[21] = source organism: Mycobacterium tuberculosis variant bovis BCG str. Pasteur 1173P2
[22] = source organism: Campylobacter jejuni subsp. jejuni NCTC 11168 = ATCC 700819
[23] = source organism: Dengue virus 1 Singapore/S275/1990
[24] = source organism: Dengue virus 2 Peru/IQT2913/1996
[25] = source organism: Dengue virus 2 Thailand/NGS-C/1944

With AQKLATKPV the Kd (HLA-A*03:01 [1]) was ≥ 20 µM, the Kd (HLA-A*23:01) was ≥ 20 µM and the Kd (HLA-A*02:16) was ≥ 20 µM. The Kd (HLA-A*02:12) was ≥ 20 µM, the Kd (HLA-B*15:01 [2]) was 716 nM and the Kd (HLA-A*68:02 [3]) was ≥ 20 µM. The Kd (HLA-A*02:11 [4]) was ≥ 20 µM, the Kd (HLA-A*29:02 [5]) was ≥ 20 µM and the Kd (HLA-A*24:03) was ≥ 20 µM. The Kd (HLA-A*02:19 [6]) was ≥ 20 µM, the Kd (HLA-A*02:01 [7]; [19]) was ≥ 20000 nM and the Kd (HLA-B*57:01; [19]) was ≥ 20 µM. For the same sequence, the Kd (HLA-B*15:17) was ≥ 20 µM, the Kd (HLA-A*26:01 [8]; [19]) was ≥ 20 µM and the Kd (HLA-B*18:01; [19]) was ≥ 20 µM. For the same sequence, the Kd (HLA-A*69:01) was ≥ 20 µM, the Kd (HLA-B*46:01; [19]) was ≥ 20 µM and the Kd (HLA-B*39:01) was ≥ 20 µM. For the same sequence, the Kd (HLA-B*27:03; [19]) was ≥ 20 µM and the Kd (HLA-B*51:01; [19]) was ≥ 20 µM.
In the case of MVKMGGLGY, the Kd (HLA-A*29:02 [9]; source organism: Rotavirus G3) is reported as 28.6 nM and the Kd (HLA-A*01:01 [10]; source organism: Rotavirus G3) is reported as ≥ 20000 nM.
FMKDGRSLV showed a Kd (HLA-A*02:06; [20]) of 318 nM, a Kd (HLA-A*02:01 [11]; [20]) of 219 nM and a Kd (HLA-A*02:03; [20]) of 16.1 nM. It also gave a Kd (HLA-A*02:17; [20]) of 1660 nM.
HLTRVGPYL was tested, and the Kd (HLA-A*02:01 [7]; [21]) was 2.4 nM, the Kd (HLA-B*57:01; [21]) was ≥ 20 µM and the Kd (HLA-A*03:01 [12]; [21]) was ≥ 20 µM. The Kd (HLA-A*26:01 [8]; [21]) was ≥ 20 µM, the Kd (HLA-B*18:01; [21]) was ≥ 20 µM and the Kd (HLA-B*15:01 [13]; [21]) was ≥ 20 µM. For the same sequence, the Kd (HLA-A*29:02 [9]; [21]) was ≥ 20000 nM, the Kd (HLA-B*46:01; [21]) was ≥ 20 µM and the Kd (HLA-B*27:03; [21]) was ≥ 20 µM. The Kd (HLA-B*51:01; [21]) was ≥ 20 µM and the Kd (HLA-A*02:19 [14]; [21]) was 1030 nM.
AVGFFPTGV was tested, and the Kd (HLA-A*02:01 [7]; [22]) was 2.2 nM, the Kd (HLA-B*57:01; [22]) was ≥ 20 µM and the Kd (HLA-A*03:01 [12]; [22]) was ≥ 20 µM. For the same sequence, the Kd (HLA-A*26:01 [8]; [22]) was ≥ 20 µM, the Kd (HLA-B*18:01; [22]) was ≥ 20 µM and the Kd (HLA-B*15:01 [13]; [22]) was ≥ 20 µM. The Kd (HLA-A*29:02 [9]; [22]) was 351 nM, the Kd (HLA-B*46:01; [22]) was ≥ 20 µM and the Kd (HLA-B*27:03; [22]) was ≥ 20 µM. For the same sequence, the Kd (HLA-B*51:01; [22]) was ≥ 20 µM and the Kd (HLA-A*02:19 [14]; [22]) was 103 nM.
With SMIFSVLDA the Kd (HLA-A*02:01 [7]; source organism: Encephalitozoon cuniculi GB-M1) was 1.4 nM and the Kd (HLA-A*02:11 [15]) was 129 nM.
Sequence GVFHTMWHV has a Kd (HLA-A*02:06; source organism: Dengue virus 3 Martinique/1243/1999) of 4.41 nM, a Kd (HLA-A*02:01 [11]; [20]) of 7.59 nM and a Kd (HLA-A*68:02 [16]) of 7.01 nM. The Kd (HLA-A*02:17; [20]) was 109 nM.
In the case of TVMDIISRK, the Kd (HLA-A*11:01) is reported as 1.7 nM, the Kd (HLA-B*45:06) is reported as ≥ 5 µM and the Kd (HLA-B*83:01) is reported as ≥ 5 µM. For the same sequence, the Kd (HLA-A*31:01) was ≥ 50 µM, the Kd (HLA-B*15:42) was ≥ 5 µM and the Kd (HLA-A*68:01) was 10.5 nM.
For YLALIATFKI, the Kd (HLA-A*02:17; source organism: Dengue virus 3 China/80-2/1980) was 885 nM.
LLVKLALITV gave a Kd (HLA-A*02:06; [20]) of 769 nM, a Kd (HLA-A*02:01 [11]; [20]) of 17.6 nM and a Kd (HLA-A*02:03; [20]) of 0.18 nM. For the same sequence, the Kd (HLA-A*02:17; [20]) was 6700 nM.
With GLFGKTQVGV the Kd (HLA-A*02:01 [11]; [20]) was 6.21 nM, the Kd (HLA-A*02:03; [20]) was 0.55 nM and the Kd (HLA-A*02:17; [20]) was 2760 nM.
VTYECPLLV gave a Kd (HLA-A*02:01 [11]; [20]) of 26.6 nM, a Kd (HLA-A*02:17; [20]) of 562 nM and a Kd (HLA-A*01:01 [17]) of 343 nM.
In the case of TMLLMLLPTA, the Kd (HLA-A*02:06; source organism: Dengue virus 1 Brazil/97-11/1997) is reported as 2.59 nM, the Kd (HLA-A*02:01 [11]; [23]) is reported as 30.6 nM and the Kd (HLA-A*02:17; [23]) is reported as 661 nM. It also gave a Kd (HLA-A*30:01) of 12.4 µM.
With LLENDMKFTV the Kd (HLA-A*02:01 [11]; [23]) was 5.76 nM and the Kd (HLA-A*02:17; [23]) was 115 nM.
For MLLVLCVTQV, the Kd (HLA-A*02:06; [24]) was 84 nM, the Kd (HLA-A*02:01 [11]; [25]) was 26.5 nM and the Kd (HLA-A*02:03; [24]) was 175 nM. The Kd (HLA-A*02:17; [25]) was 843 nM.
VSMDQLASY gave a Kd (HLA-B*46:01; source organism: Homo sapiens) of 0.0314 µM and a Kd (HLA-A*01:01 [10]; source organism: Homo sapiens) of 164 nM.
LLAGFMAYM showed a Kd (HLA-A*02:01 [11]; [20]) of 4.7 nM, a Kd (HLA-A*02:03; [20]) of 68.5 nM and a Kd (HLA-A*26:01 [18]) of 1210 nM. For the same sequence, the Kd (HLA-A*02:17; [20]) was 1.97 nM.
In the case of RKSAPSTGGV, the Kd (HLA-A*02:01 [11]; source organism: Homo sapiens) is reported as ≥ 38700 nM and the Kd (HLA-A*02:17; source organism: Homo sapiens) is reported as ≥ 20600 nM.
